Data: US20100105567A1, “NOVEL CAPTURE AGENTS FOR BINDING A LIGAND” (priority 2005, published 2010)
No end group written: not given here. TAMRA = rhodamine dye label at the N-terminus (mixture of 5- and 6-isomers)

Experiments:
Format in all cases: physicochemical
[1] = Time-dependent persistence of peptide on polypropylene in aqueous buffer; details: 1 M NaCl/10 mM tris-HCl (pH 8.0)
Procedure: The time-dependent persistence of peptide 2DOS-2 (see above) deposited onto a polypropylene hydrophobic surface in the presence of aqueous buffer was investigated as shown below:
Twelve 100 μl aliquots of 5 μM peptide 2DOS-2 in 5 mM tris-HCl (pH 8.0) in 75% (v/v) aqueous acetonitrile were dispensed to the wells of the top row of a Costar microtitre plate.
(§1) The peptide samples were allowed to evaporate to dryness in the dark.
The dried peptide samples in wells 1-10 were incubated with 250 μl of 1 M NaCl in 10 mM tris-HCl (pH 8.0) for the time indicated below at room temperature. All supernatants were pipetted up and down 8 times after incubation and the supernatants were then removed and placed in the wells of the bottom row of the microtitre plate. […]
(§2) The fluorescence images were analysed using ImageQuant TL v2003.03 (Amersham Biosciences).
Fluorescence data for the time-dependent persistence of peptide 2DOS-2 deposited onto a polypropylene hydrophobic surface in the presence of aqueous buffer are shown in FIG. 17: […]

[2] = pH resistance of peptide deposited onto polypropylene; details: maximal retention at low and high pH, minimal around pH 6.5
Procedure: The pH resistance of peptide 2DOS-2 (see above) deposited onto a polypropylene hydrophobic surface was investigated:
Twelve 50 μl aliquots of peptide 2DOS-2 in 10 mM tris-HCl (pH 8.0) in 50% (v/v) aqueous acetonitrile were dried down in the wells of a Costar microtitre plate.
as §1
The dried peptide samples in the first eleven wells were incubated with 200 μl of 100 mM phosphate buffer for 30 minutes at room temperature according to the scheme shown in Table 7:
All supernatants were pipetted off and the residual surface-bound peptides in all twelve wells were finally resuspended in 50 μl of 10,mM tris-HCl (pH 8.0) in 50% (v/v) aqueous acetonitrile and the microtitre plate was imaged at 200 μm resolution on a Typhoon Trio Plus variable mode imager (Amersham Biosciences) with the green (532 nm) laser and the 580 BP 30 filter at the PMT voltages indicated below and at normal sensitivity. The scan height was set at +3 mm and the sample was pressed during scanning.
as §2
Quantification data for peptide 2DOS-2 retention (using data from the 300V scan) are given in Table 8 and graphically in FIG. 16: […]

[3] = Retention of arrayed peptides on a polypropylene sheet after successive washes; details: for Corrected signal: slide background subtracted
Procedure: Further experiments were undertaken to investigate the retention of peptides P1-1 to P1-5 and P2-1 to P2-2, shown in Table 3, on a polypropylene surface.
The polypropylene sheet was wiped with 50% (v/v) aqueous acetonitrile prior to use.
8×replicate 20 nl volumes of 1 μM peptides P1-1 to P1-5 and P2-1 to P2-2 and TAMRA in dimethyl sulphoxide (DMSO) were dispensed at 1 mm spacing to a 3″×1″×1 mm polypropylene sheet using the Piezorray system (PerkinElmer LAS). 500 drops were pre-dispensed using the ‘side shoot’ option and the tuning was set to 72V for 30 μs.
The slide was imaged at 10 μm resolution on a Typhoon Trio Plus variable mode imager (Amersham Biosciences) with the green (532 nm) laser and the 580 BP 30 filter at a PMT voltage of 600 V and at normal sensitivity. The scan height was set at the platen and the samples were pressed during scanning. The fluorescence image was analysed using ImageQuant TL v2003.03 (Amersham Biosciences).
The lower half of the slide (containing the test array) was then washed in 100 ml of 1 M NaCl containing 10 mM tris-HCl (pH 8.0) for one minute and were re-scanned as described above.
The same half of the slide was then washed for a second time in 100 ml of 1 M NaCl containing 10 mM tris-HCl (pH 8.0) for 30 minutes and re-scanned as described above.
The same half of the slide was then washed for a third time in 100 ml of water for 30 minutes and re-scanned as described above.

[4] = Control array (not washed), scan after first wash
[5] = Control array (not washed), scan after second wash
[6] = Control array (not washed), scan after third wash
[7] = Test array, after first wash (1 M NaCl, 10 mM tris-HCl pH 8.0, one minute)
[8] = Test array, after second wash (1 M NaCl, 10 mM tris-HCl pH 8.0, 30 minutes)
[9] = Test array, after third wash (water, 30 minutes)

Substance: N-TAMRA-Phe-Asp-Phe-Ala-Phe-Ser-Phe-Lys-Phe-C ({TAMRA}-FDFAFSFKF; not fully specified (C-terminus)) [Peptide 2DOS-2]
- retention on a hydrophobic polypropylene surface over time (in words) [1]: stable for extended periods of time
- retention on a polypropylene surface versus pH (in words) [2]: stable over a broad range of pH values

Substance: TAMRA-F-G-F-G-F-G-F-G-F-G-F-S-F-A-F-D-F-G-F ({TAMRA}-FGFGFGFGFGFSFAFDFGF) [Peptide P1-5]
- Average fluorescence [3, 4]: 199,347,483
- Corrected signal [3, 4]: 52,655,810
- Average fluorescence [3, 5]: 190,847,825
- Corrected signal [3, 5]: 53,567,975
- Average fluorescence [3, 6]: 183,492,293
- Corrected signal [3, 6]: 49,585,053
- Average fluorescence [3, 7]: 201,991,732
- Corrected signal ([3]; Test array, after first wash): 47,493,774
- Average fluorescence [3, 8]: 167,865,473
- Corrected signal ([3]; Test array, after second wash): 35,418,169
- Average fluorescence [3, 9]: 147,812,043
- Corrected signal ([3]; Test array, after third wash): 23,514,817
- retention on polypropylene sheet (in words) ([3]; compared among P1-1 to P1-5, chain length of 19 amino acids): highest retention

Substance: TAMRA-F-G-F-G-F-G-F-G-F-S-F-A-F-D-F-G-F ({TAMRA}-FGFGFGFGFSFAFDFGF) [Peptide P1-4]
- Average fluorescence [3, 4]: 187,287,630
- Corrected signal [3, 4]: 40,595,958
- Average fluorescence [3, 5]: 179,942,418
- Corrected signal [3, 5]: 42,662,569
- Average fluorescence [3, 6]: 176,102,487
- Corrected signal [3, 6]: 42,195,247
- Average fluorescence [3, 7]: 189,823,310
- Corrected signal ([3]; Test array, after first wash): 35,325,352
- Average fluorescence [3, 8]: 159,100,527
- Corrected signal ([3]; Test array, after second wash): 26,653,223
- Average fluorescence [3, 9]: 135,681,173
- Corrected signal ([3]; Test array, after third wash): 11,383,947

Substance: TAMRA-F-G-F-G-F-G-F-S-F-A-F-D-F-G-F ({TAMRA}-FGFGFGFSFAFDFGF) [Peptide P1-3]
- Average fluorescence [3, 4]: 192,743,469
- Corrected signal [3, 4]: 46,051,796
- Average fluorescence [3, 5]: 187,310,655
- Corrected signal [3, 5]: 50,030,806
- Average fluorescence [3, 6]: 184,219,147
- Corrected signal [3, 6]: 50,311,907
- Average fluorescence [3, 7]: 171,197,973
- Corrected signal ([3]; Test array, after first wash): 16,700,014
- Average fluorescence [3, 8]: 148,725,456
- Corrected signal ([3]; Test array, after second wash): 16,278,152
- Average fluorescence [3, 9]: 125,717,642
- Corrected signal ([3]; Test array, after third wash): 1,420,417

Substance: TAMRA-F-G-F-G-F-S-F-A-F-D-F-G-F ({TAMRA}-FGFGFSFAFDFGF) [Peptide P1-2]
- Average fluorescence [3, 4]: 200,280,129
- Corrected signal [3, 4]: 53,588,457
- Average fluorescence [3, 5]: 196,080,891
- Corrected signal [3, 5]: 58,801,042
- Average fluorescence [3, 6]: 185,727,868
- Corrected signal [3, 6]: 51,820,628
- Average fluorescence [3, 7]: 170,078,218
- Corrected signal ([3]; Test array, after first wash): 15,580,260
- Average fluorescence [3, 8]: 135,695,639
- Corrected signal ([3]; Test array, after second wash): 3,248,336
- Average fluorescence [3, 9]: 126,193,156
- Corrected signal ([3]; Test array, after third wash): 1,895,931

Substance: TAMRA-F-G-F-S-F-A-F-D-F-G-F ({TAMRA}-FGFSFAFDFGF) [Peptide P1-1]
- Average fluorescence [3, 4]: 244,263,013
- Corrected signal [3, 4]: 97,571,341
- Average fluorescence [3, 5]: 225,863,933
- Corrected signal [3, 5]: 88,584,083
- Average fluorescence [3, 6]: 218,342,010
- Corrected signal [3, 6]: 84,434,769
- Average fluorescence [3, 7]: 157,624,537
- Corrected signal ([3]; Test array, after first wash): 3,126,578
- Average fluorescence [3, 8]: 127,216,792
- Corrected signal ([3]; Test array, after second wash): −5,230,512
- Average fluorescence [3, 9]: 124,941,941
- Corrected signal ([3]; Test array, after third wash): 644,716
